Data from US20210072250A1 (Genentech, published 2021).

What was measured:
P6-Hpu [1] = target: T1, P6-Hpu; assay: ELISA, unpurified hybridoma supernatant on peptide
T1 construct: Synthetic peptide

P6 = assay: ELISA, unpurified hybridoma supernatant on peptide
[2] = target: T2, Flag-tagged human wild-type eIF5A (human, UniProt P63241 1-154); assay: Western blot of lysates of 293 cells transfected with DHS-DOHH and flag-eIF5A WT or K50A
T2 construct: also called transfected wild-type eIF5A; WT eIF5A

[3] = target: T3, Flag-tagged human K50A eIF5A (human, UniProt P63241 1-154); assay: as above
T3 construct: also called K50A variant; K50A mutant eIF5A

endogenous eIF5A [4] = target: T4, endogenous eIF5A (human, UniProt P63241 2-154); assay: as above
T4 construct: also called endogenous eIF5A protein of 293T cells

endogenous eIF5A [5] = target: T4, endogenous eIF5A; assay: immunoprecipitation from 293T cell lysate (diluted 1, 2, 4, 8-fold) with antibody on protein A beads, SDS-PAGE, Coomassie blue
P6-Hpu [6] = target: T1, P6-Hpu; assay: SPR, Biacore T200, peptide captured, Fab flowed
P6-Hpu [7] = target: T1, P6-Hpu; assay: SPR, ratio of KD values

T4 sequence (P63241 2-154 limits assumed): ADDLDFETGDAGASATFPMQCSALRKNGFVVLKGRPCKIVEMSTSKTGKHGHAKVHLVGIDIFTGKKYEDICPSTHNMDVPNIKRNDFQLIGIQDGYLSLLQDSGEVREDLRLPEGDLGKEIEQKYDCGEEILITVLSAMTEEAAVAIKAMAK
T3 sequence (P63241 whole entry K50A): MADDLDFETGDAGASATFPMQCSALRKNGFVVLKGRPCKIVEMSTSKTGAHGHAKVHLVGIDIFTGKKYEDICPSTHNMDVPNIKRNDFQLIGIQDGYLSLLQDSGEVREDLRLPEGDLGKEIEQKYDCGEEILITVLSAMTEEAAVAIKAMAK
T2 sequence (P63241 whole entry): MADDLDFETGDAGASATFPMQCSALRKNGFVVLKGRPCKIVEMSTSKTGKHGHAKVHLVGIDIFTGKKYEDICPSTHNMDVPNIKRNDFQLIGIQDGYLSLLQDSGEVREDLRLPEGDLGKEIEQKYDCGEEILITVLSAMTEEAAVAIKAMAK

B1: mAbHpu91 (antibody, V domains shown)
VH: QSVEESGGRLVTPGTPLTLTCTVSAFSLSTYTINWVRQAPGKGLEWIGDIWSDGNTYYANWAKGRFTISKTSTTVDLKITSPTTEDTATYFCARDSWDTSIYYGLDLWGQGTLVTVSS
VL: AIKMTQTPSSVSAAVGGTVTINCQASEDIKRYLAWYQQKPGQPPKLLIYAASKLASGVSSRFTGSGSGTEYTLTISGVQCDDAATYYCQQGYTSTNVNNAFGGGTEVVVK
notes: also called antibody Hpu91
B1: binds (P6-Hpu [1]); no binding (P6); binds [2]. B1: no binding [3]; binds (endogenous eIF5A [4]).

B2: mAbHpu24 (antibody, V domains shown)
VH: QEQLKESGGRLVAPGTPLTLTCTVSGFDISDYAMIWVRQAPGKGLEWIGIIYGGSNKLAYAKWAKGRFTISRTSTTVDLKITSPTTEDTATYFCARGYGSMDGYDRLNLWGQGTLVTVSS
VL: AAVLTQTPSPVSAAVGGTVTISCQSSETVYRGDWLSWFQKKPGQPPKLLIYDASYLASGVSSRFSGSGSGTHFTLTISGVQCDDAATYYCLGGYYDDADDTFGGGTEVVVK
notes: also called antibody Hpu24
B2: no binding (P6).

B3: mAbHpu24.B (antibody, V domains shown)
VH: QEQLKESGGRLVAPGTPLTLTCTVSGFDISDYAMIWVRQAPGKGLEWIGIIYGVINDLAYAKWAKGRFTISRTSTTVDLKITSPTTEDTATYFCARGYGSMDGYDRLNLWGQGTLVTVSS
VL: AAVLTQTPSPVSAAVGGTVTISCRSRQRVYLGDWLSWFQKKPGQPPKLLIYDASFRGDGVSSRFSGSGSGTHFTLTISGVQCDDAATYYCLGGYYDDADDTFGGGTEVVVK
notes: also called antibody Hpu24.B
B3: binds (endogenous eIF5A [5]).

B4: FabHpu24 (Fab, V domains shown)
VH: QEQLKESGGRLVAPGTPLTLTCTVSGFDISDYAMIWVRQAPGKGLEWIGIIYGGSNKLAYAKWAKGRFTISRTSTTVDLKITSPTTEDTATYFCARGYGSMDGYDRLNLWGQGTLVTVSS
VL: AAVLTQTPSPVSAAVGGTVTISCQSSETVYRGDWLSWFQKKPGQPPKLLIYDASYLASGVSSRFSGSGSGTHFTLTISGVQCDDAATYYCLGGYYDDADDTFGGGTEVVVKG
With B4 the Kd (P6-Hpu [6]) was 0.176 µM.

B5: FabHpu24.B (Fab, V domains shown)
VH: QEQLKESGGRLVAPGTPLTLTCTVSGFDISDYAMIWVRQAPGKGLEWIGIIYGVINDLAYAKWAKGRFTISRTSTTVDLKITSPTTEDTATYFCARGYGSMDGYDRLNLWGQGTLVTVSS
VL: AAVLTQTPSPVSAAVGGTVTISCRSRQRVYLGDWLSWFQKKPGQPPKLLIYDASFRGDGVSSRFSGSGSGTHFTLTISGVQCDDAATYYCLGGYYDDADDTFGGGTEVVVKG
For B5, the “Fold improvement in KD over parent FabHpu24” value (P6-Hpu [7]) was 2.9 fold and the Kd (P6-Hpu [6]) was 0.061 µM.

B6: FabHpu98.61 (Fab, V domains shown)
VH: QSVEESGGRLVTPGTPLTLTCTVSACSLYHCTMNWVRQAPGKGLEWIGDIYTDGNTYYANWAKGRFTISKTSTTVDLKITSPTTEDTATYFCARDSWDASSYYGLDLWGQGTLVTVSS
VL: AIKMTQTPSSVSAAVGGTVTINCQASEDIKRYLAWYQQKPGQPPKLLIYAASKLASGVSSRFKGSGSGTEYTLTISGVQCDDAATYYCQQGYTSSNVNNAFGGGTEVVVKG
With B6 the “Fold improvement in KD over parent FabHpu98” value (P6-Hpu [7]) was > 4.4 fold and the Kd (P6-Hpu [6]) was 0.229 µM.
